According to the supplement of paper PMC9112550, “Optimization of the antimicrobial peptide Bac7 by deep mutational scanning” (BMC Biology, 2022):

What follows are sequences tested on Escherichia coli TOP10 (assay: shrunken log2 fold change of peptide-encoding DNA abundance (4.5 h post-induction vs induction); higher = less antimicrobial activity (less host growth inhibition)). Conditions: time post-induction: 4.5 h; library: site-saturation at positions 5, 18, 19, 20.
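Also: peptides expressed intracellularly from a pBAD plasmid library in pooled LB shake-flask culture, induced with 0.3% L-arabinose, DNA abundance read by NGS, three biological replicates, DESeq2 with apeglm shrinkage.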

| Sequence | shrunken log2 fold change |
| --- | --- |
| RRIRWRPPRLPRPRPRPGFIPRP | 0.0297 |
| RRIRNRPPRLPRPRPRPENDPRP | 0.0164 |
| RRIRYRPPRLPRPRPRPMPNPRP | -0.0961 |
| RRIRTRPPRLPRPRPRPFLKPRP | 0.092 |
| RRIRYRPPRLPRPRPRPPAHPRP | 0.178 |
| RRIRERPPRLPRPRPRPCPIPRP | -0.246 |
| RRIRERPPRLPRPRPRPDVEPRP | 0.084 |
| RRIRMRPPRLPRPRPRPCIKPRP | 0.0207 |
| RRIRVRPPRLPRPRPRPFQEPRP | 0.00442 |
| RRIRIRPPRLPRPRPRPIVKPRP | -0.0118 |
| RRIRARPPRLPRPRPRPMHGPRP | 0.311 |
| RRIRMRPPRLPRPRPRPNIMPRP | -0.466 |
| RRIRVRPPRLPRPRPRPLICPRP | -0.0443 |
| RRIRWRPPRLPRPRPRPVFRPRP | -0.153 |
| RRIRWRPPRLPRPRPRPEPNPRP | 1.23 |
| RRIRNRPPRLPRPRPRPDISPRP | 0.000389 |
| RRIRRRPPRLPRPRPRPMHKPRP | 0.299 |
| RRIRWRPPRLPRPRPRPMMEPRP | 0.134 |
| RRIRKRPPRLPRPRPRPPWQPRP | 0.236 |
| RRIRIRPPRLPRPRPRPFRKPRP | -0.169 |
| RRIRMRPPRLPRPRPRPKDYPRP | 0.224 |
| RRIRGRPPRLPRPRPRPWCFPRP | 0.212 |
| RRIRIRPPRLPRPRPRPRPPPRP | 0.635 |
| RRIRLRPPRLPRPRPRPIFWPRP | -0.189 |
| RRIRYRPPRLPRPRPRPHYWPRP | -0.582 |

| Sequence | shrunken log2 fold change |
| --- | --- |
| RRIRHRPPRLPRPRPRPCFEPRP | -0.114 |
| RRIRKRPPRLPRPRPRPTEQPRP | 2.01 |
| RRIRWRPPRLPRPRPRPLEMPRP | 0.373 |
| RRIRGRPPRLPRPRPRPAKWPRP | 0.747 |
| RRIRPRPPRLPRPRPRPCSAPRP | 0.199 |
| RRIRTRPPRLPRPRPRPYEVPRP | -0.0168 |
| RRIRYRPPRLPRPRPRPTDYPRP | -0.746 |
| RRIRQRPPRLPRPRPRPTYRPRP | 0.06 |
| RRIRPRPPRLPRPRPRPKSMPRP | -0.37 |
| RRIRMRPPRLPRPRPRPFVGPRP | 0.0187 |
| RRIRRRPPRLPRPRPRPVQYPRP | -0.00909 |
| RRIRFRPPRLPRPRPRPVMVPRP | -1.14 |
| RRIRTRPPRLPRPRPRPGVCPRP | 0.442 |
| RRIRYRPPRLPRPRPRPGWSPRP | -0.135 |
| RRIRRRPPRLPRPRPRPFQHPRP | -0.248 |
| RRIRHRPPRLPRPRPRPRSLPRP | 0.295 |
| RRIRKRPPRLPRPRPRPSMQPRP | 0.293 |
| RRIRMRPPRLPRPRPRPRYKPRP | 0.104 |
| RRIRERPPRLPRPRPRPMYQPRP | -0.0801 |
| RRIRARPPRLPRPRPRPLTSPRP | 0.209 |
| RRIRHRPPRLPRPRPRPYIYPRP | -0.347 |
| RRIRERPPRLPRPRPRPAEMPRP | -0.0352 |
| RRIRSRPPRLPRPRPRPPRGPRP | 0.638 |
| RRIRFRPPRLPRPRPRPYEFPRP | -0.245 |
| RRIRARPPRLPRPRPRPEPFPRP | 0.0204 |

| Sequence | shrunken log2 fold change |
| --- | --- |
| RRIRYRPPRLPRPRPRPNAHPRP | -0.395 |
| RRIRYRPPRLPRPRPRPSIKPRP | -0.952 |
| RRIRKRPPRLPRPRPRPKRCPRP | 0.309 |
| RRIRLRPPRLPRPRPRPETMPRP | 0.0125 |
| RRIRVRPPRLPRPRPRPMSNPRP | 0.0709 |
| RRIRNRPPRLPRPRPRPMKFPRP | -0.000903 |
| RRIRSRPPRLPRPRPRPLNPPRP | -0.0273 |
| RRIRVRPPRLPRPRPRPWKDPRP | -0.00963 |
| RRIRFRPPRLPRPRPRPMDFPRP | -0.00674 |
| RRIRARPPRLPRPRPRPKFYPRP | -0.214 |
| RRIRNRPPRLPRPRPRPERRPRP | 0.237 |
| RRIRERPPRLPRPRPRPTKFPRP | -0.364 |
| RRIRGRPPRLPRPRPRPLACPRP | 0.975 |
| RRIRIRPPRLPRPRPRPQCCPRP | -0.0258 |
| RRIRTRPPRLPRPRPRPWRLPRP | -0.127 |
| RRIRGRPPRLPRPRPRPCFHPRP | -0.011 |
| RRIRWRPPRLPRPRPRPRPRPRP | 0.974 |
| RRIRFRPPRLPRPRPRPTPCPRP | 0.107 |
| RRIRTRPPRLPRPRPRPDLTPRP | 0.129 |
| RRIRERPPRLPRPRPRPVRSPRP | 0.0119 |
| RRIRRRPPRLPRPRPRPTATPRP | 1.56 |
| RRIRGRPPRLPRPRPRPAIFPRP | 0.583 |
| RRIRWRPPRLPRPRPRPKYMPRP | -0.501 |
| RRIRQRPPRLPRPRPRPCLPPRP | -0.186 |
| RRIRKRPPRLPRPRPRPHTDPRP | -0.0857 |

| Sequence | shrunken log2 fold change |
| --- | --- |
| RRIRDRPPRLPRPRPRPLFEPRP | 0.7 |
| RRIRYRPPRLPRPRPRPPLCPRP | -0.173 |
| RRIRPRPPRLPRPRPRPKIIPRP | -0.0308 |
| RRIRVRPPRLPRPRPRPRFTPRP | -0.0651 |
| RRIRYRPPRLPRPRPRPPNVPRP | 0.0158 |
| RRIRKRPPRLPRPRPRPITKPRP | -0.0212 |
| RRIRKRPPRLPRPRPRPCSFPRP | -0.397 |
| RRIRDRPPRLPRPRPRPTCKPRP | 0.0657 |
| RRIRDRPPRLPRPRPRPPIPPRP | -0.0554 |
| RRIRTRPPRLPRPRPRPWEQPRP | 0.0248 |
| RRIRYRPPRLPRPRPRPEVYPRP | -0.0597 |
| RRIRSRPPRLPRPRPRPSCVPRP | -0.152 |
| RRIRRRPPRLPRPRPRPQQMPRP | 0.12 |
| RRIRLRPPRLPRPRPRPSWQPRP | -0.0855 |
| RRIRGRPPRLPRPRPRPLHIPRP | 0.105 |
| RRIRSRPPRLPRPRPRPGRKPRP | 0.133 |
| RRIRHRPPRLPRPRPRPKIEPRP | 0.0371 |
| RRIRIRPPRLPRPRPRPPWFPRP | -0.136 |
| RRIRSRPPRLPRPRPRPNYKPRP | -0.546 |
| RRIRMRPPRLPRPRPRPLFTPRP | -0.171 |
| RRIRCRPPRLPRPRPRPTNLPRP | -0.656 |
| RRIRHRPPRLPRPRPRPFKLPRP | -0.196 |
| RRIRPRPPRLPRPRPRPALYPRP | -0.0126 |
| RRIRQRPPRLPRPRPRPCHRPRP | 0.0197 |
| RRIRNRPPRLPRPRPRPPMAPRP | 0.361 |

| Sequence | shrunken log2 fold change |
| --- | --- |
| RRIRARPPRLPRPRPRPRRKPRP | 0.644 |
| RRIRNRPPRLPRPRPRPDKTPRP | -0.0594 |
| RRIRYRPPRLPRPRPRPTHFPRP | 0.262 |
| RRIRHRPPRLPRPRPRPCNCPRP | 0.0668 |
| RRIRSRPPRLPRPRPRPGAEPRP | 0.606 |
| RRIRQRPPRLPRPRPRPVLWPRP | 0.193 |
| RRIRFRPPRLPRPRPRPMDLPRP | -0.161 |
| RRIRSRPPRLPRPRPRPVGPPRP | 0.373 |
| RRIRPRPPRLPRPRPRPLWYPRP | -0.496 |
| RRIRTRPPRLPRPRPRPVWGPRP | 0.368 |
| RRIRDRPPRLPRPRPRPGCDPRP | 0.79 |
| RRIRPRPPRLPRPRPRPGVFPRP | 0.144 |
| RRIRGRPPRLPRPRPRPEGYPRP | 0.118 |
| RRIRYRPPRLPRPRPRPTNNPRP | -1.14 |
| RRIRKRPPRLPRPRPRPTPTPRP | 0.831 |
| RRIRNRPPRLPRPRPRPCTEPRP | -0.347 |
| RRIRRRPPRLPRPRPRPFMSPRP | -0.327 |
| RRIRQRPPRLPRPRPRPCPTPRP | -0.13 |
| RRIRDRPPRLPRPRPRPFGRPRP | -0.0125 |
| RRIRIRPPRLPRPRPRPAMLPRP | -0.22 |
| RRIRSRPPRLPRPRPRPVMSPRP | 0.11 |
| RRIRVRPPRLPRPRPRPCHSPRP | -0.225 |
| RRIRYRPPRLPRPRPRPAPTPRP | 0.169 |
| RRIRERPPRLPRPRPRPSYAPRP | -0.176 |
| RRIRPRPPRLPRPRPRPNKCPRP | -0.26 |

| Sequence | shrunken log2 fold change |
| --- | --- |
| RRIRHRPPRLPRPRPRPNDVPRP | -0.0131 |
| RRIRYRPPRLPRPRPRPMQNPRP | -0.488 |
| RRIRFRPPRLPRPRPRPLASPRP | -0.0784 |
| RRIRQRPPRLPRPRPRPECNPRP | 0.062 |
| RRIRFRPPRLPRPRPRPSWTPRP | -0.561 |
| RRIRPRPPRLPRPRPRPMNPPRP | 0.00824 |
| RRIRSRPPRLPRPRPRPMDNPRP | -0.0175 |
| RRIRRRPPRLPRPRPRPPFSPRP | 0.207 |
| RRIRDRPPRLPRPRPRPLVAPRP | 0.912 |
| RRIRPRPPRLPRPRPRPAKSPRP | 0.179 |
| RRIRIRPPRLPRPRPRPTDEPRP | 0.125 |
| RRIRNRPPRLPRPRPRPTVLPRP | -0.091 |
| RRIRGRPPRLPRPRPRPIAGPRP | 0.701 |
| RRIRRRPPRLPRPRPRPGPIPRP | 0.174 |
| RRIRLRPPRLPRPRPRPCTCPRP | -0.238 |
| RRIRIRPPRLPRPRPRPFSWPRP | 0.0705 |
| RRIRMRPPRLPRPRPRPCCYPRP | -0.427 |
| RRIRIRPPRLPRPRPRPSWRPRP | 0.144 |
| RRIRSRPPRLPRPRPRPWTDPRP | -0.12 |
| RRIRKRPPRLPRPRPRPWDCPRP | 0.121 |
| RRIRTRPPRLPRPRPRPCCVPRP | -0.363 |
| RRIRRRPPRLPRPRPRPCTEPRP | 0.106 |
| RRIRWRPPRLPRPRPRPNYRPRP | -0.034 |
| RRIRWRPPRLPRPRPRPTQWPRP | 0.346 |
| RRIRWRPPRLPRPRPRPKCEPRP | 0.359 |
